Source: CN114560932A (MILITARY MEDICINE RES INSTITUTE OF CHINESE PEOPLE …, dated 2022)

Experiments:
鼠疫杆菌V重组蛋白 = 鼠疫杆菌V重组蛋白 (Yersinia pestis, UniProt P0C7U7 1-326); assay: ELISA, antigen coated at 2 μg/mL, mhS1 at 20 μg/mL, goat anti-human IgG-HRP
鼠疫菌F1重组蛋白 = 鼠疫菌F1重组蛋白 (Yersinia pestis, UniProt P26948 22-170)
鼠疫菌F1重组蛋白, sequence (P26948 22-170 limits assumed): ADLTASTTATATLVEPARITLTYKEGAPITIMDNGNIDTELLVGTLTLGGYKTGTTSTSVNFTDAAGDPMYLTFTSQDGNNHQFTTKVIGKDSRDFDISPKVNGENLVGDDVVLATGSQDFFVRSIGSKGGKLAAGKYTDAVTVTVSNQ

鼠疫杆菌V重组蛋白, sequence (P0C7U7 whole entry): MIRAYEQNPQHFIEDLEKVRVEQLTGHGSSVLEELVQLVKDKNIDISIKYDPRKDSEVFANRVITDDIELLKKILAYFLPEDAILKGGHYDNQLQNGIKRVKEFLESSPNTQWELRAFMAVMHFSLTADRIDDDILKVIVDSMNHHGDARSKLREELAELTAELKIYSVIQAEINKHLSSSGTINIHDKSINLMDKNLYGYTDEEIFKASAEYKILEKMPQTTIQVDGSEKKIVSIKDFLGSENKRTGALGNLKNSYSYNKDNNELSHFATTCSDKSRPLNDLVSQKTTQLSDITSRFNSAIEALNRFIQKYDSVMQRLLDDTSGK

B1: 人鼠嵌合全抗体mhS1 (antibody, V domains shown)
VH: QVQLKESGAELVKPGASVKLSCTASGFNIKDTYIHWMKQRPEQGLEWIGRIDPANGHSIYDPKFQGKATITADASSNAAYLQLSSLTSEDTAVYYCARSYGYEKRYAMDYWGQGTSVTVSS
VL: DIVMTQTTSSLSASLGDRVTISCSASQGISNYLNWYQQKPDGTVKVLIYYTSTLHSGVPSRFSGSGSGTDYSLTISNLEPEDIATYYCQQYSKLPWTFGGGTKLEMKR
binding result (鼠疫杆菌V重组蛋白): no binding (tested: 20μg/mL) | EC50 (鼠疫菌F1重组蛋白): 0.0114 nM
